Data as given in publication PMC5925748 (Molecular cancer therapeutics, 2017).

Target: sEGFR (soluble extracellular region of EGFR, wild type) (Homo sapiens, UniProt P00533)
Assay: SPR

- Kd: 6.1 nM
B1: necitumumab Fab (Fab11F8) (Fab, V domains shown)
VH: QVQLQESGPGLVKPSQTLSLTCTVSGGSISSGDYYWSWIRQPPGKGLEWIGYIYYSGSTDYNPSLKSRVTMSVDTSKNQFSLKVNSVTAADTAVYYCARVSIFGVGTFDYWGQGTLVTVSS
VL: EIVMTQSPATLSLSPGERATLSCRASQSVSSYLAWYQQKPGQAPRLLIYDASNRATGIPARFSGSGSGTDFTLTISSLEPEDFAVYYCHQYGSTPLTFGGGTKAEIK
